Reference: article PMC3005890

Biological target: teichuronic acid synthetase (TUAS) subunit B, 52.5 kDa (Micrococcus luteus (endogenous in ATCC 4698))
Experiment: native gel or EMSA; endogenous TUAS co-purified from detergent-solubilised membranes; the active ~440 kDa band on a 3-12% native gradient polyacrylamide gel is separated by 9.5% SDS-PAGE into the 54 kDa and 52.5 kDa subunits; the complex carries lipids and pigments

stoichiometry N: 8
Substance: teichuronic acid synthetase (TUAS) subunit A, 54 kDa (natural protein)
